Assay results published in PMC11900858.

How the values were obtained:
FcαμR (mouse) = FcαμR (mouse) (UniProt Q2TB54)
FcμR (mouse) = FcμR (mouse) (UniProt A1KXC4)
FcRn (mouse) = FcRn (mouse) (UniProt Q61559)
FcγRI (mouse) = FcγRI (mouse) (UniProt P26151)
FcγRIIB (mouse) = FcγRIIB (mouse) (UniProt P08101)
FcγRIII (mouse) = FcγRIII (mouse) (UniProt P08508)
UniProt P08508, sequence (P08508 31-261): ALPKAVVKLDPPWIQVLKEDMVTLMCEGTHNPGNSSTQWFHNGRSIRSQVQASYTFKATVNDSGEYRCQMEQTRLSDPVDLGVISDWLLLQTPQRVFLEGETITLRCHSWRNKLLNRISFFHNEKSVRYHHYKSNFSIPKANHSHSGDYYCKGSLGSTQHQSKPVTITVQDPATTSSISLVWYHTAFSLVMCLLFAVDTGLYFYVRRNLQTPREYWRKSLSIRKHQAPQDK

UniProt Q2TB54, sequence (Q2TB54 36-535): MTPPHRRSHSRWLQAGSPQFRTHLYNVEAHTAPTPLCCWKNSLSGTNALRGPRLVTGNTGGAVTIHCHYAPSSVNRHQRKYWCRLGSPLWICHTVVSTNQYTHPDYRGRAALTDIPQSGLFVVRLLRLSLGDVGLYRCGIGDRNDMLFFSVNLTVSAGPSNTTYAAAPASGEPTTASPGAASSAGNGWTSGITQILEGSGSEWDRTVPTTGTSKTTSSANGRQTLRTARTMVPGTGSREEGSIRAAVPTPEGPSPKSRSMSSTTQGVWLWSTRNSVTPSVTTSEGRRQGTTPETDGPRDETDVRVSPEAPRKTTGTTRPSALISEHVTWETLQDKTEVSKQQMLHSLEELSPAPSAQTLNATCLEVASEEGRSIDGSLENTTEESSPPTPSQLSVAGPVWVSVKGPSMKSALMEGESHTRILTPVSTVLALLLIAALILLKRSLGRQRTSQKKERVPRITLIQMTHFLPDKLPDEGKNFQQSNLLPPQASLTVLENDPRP
UniProt Q61559, sequence (Q61559 22-365): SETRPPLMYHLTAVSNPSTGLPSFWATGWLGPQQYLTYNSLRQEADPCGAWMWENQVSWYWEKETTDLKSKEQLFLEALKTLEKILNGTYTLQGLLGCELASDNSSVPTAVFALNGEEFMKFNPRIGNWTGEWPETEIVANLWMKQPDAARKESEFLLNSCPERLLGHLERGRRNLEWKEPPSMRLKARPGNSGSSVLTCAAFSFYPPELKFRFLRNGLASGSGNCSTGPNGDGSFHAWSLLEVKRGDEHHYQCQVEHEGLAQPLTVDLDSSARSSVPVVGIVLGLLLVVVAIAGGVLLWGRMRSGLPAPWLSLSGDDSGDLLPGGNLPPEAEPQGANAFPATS
UniProt P08101, sequence (P08101 30-330): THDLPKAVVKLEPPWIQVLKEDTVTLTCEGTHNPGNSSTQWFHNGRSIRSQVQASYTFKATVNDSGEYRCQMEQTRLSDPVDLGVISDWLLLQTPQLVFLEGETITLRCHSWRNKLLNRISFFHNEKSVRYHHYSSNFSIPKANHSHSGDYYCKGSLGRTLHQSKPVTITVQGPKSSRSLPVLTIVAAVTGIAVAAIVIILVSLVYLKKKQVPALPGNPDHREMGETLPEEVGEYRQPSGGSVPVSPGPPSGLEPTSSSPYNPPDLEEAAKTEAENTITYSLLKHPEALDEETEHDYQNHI
UniProt P26151, sequence (P26151 25-404): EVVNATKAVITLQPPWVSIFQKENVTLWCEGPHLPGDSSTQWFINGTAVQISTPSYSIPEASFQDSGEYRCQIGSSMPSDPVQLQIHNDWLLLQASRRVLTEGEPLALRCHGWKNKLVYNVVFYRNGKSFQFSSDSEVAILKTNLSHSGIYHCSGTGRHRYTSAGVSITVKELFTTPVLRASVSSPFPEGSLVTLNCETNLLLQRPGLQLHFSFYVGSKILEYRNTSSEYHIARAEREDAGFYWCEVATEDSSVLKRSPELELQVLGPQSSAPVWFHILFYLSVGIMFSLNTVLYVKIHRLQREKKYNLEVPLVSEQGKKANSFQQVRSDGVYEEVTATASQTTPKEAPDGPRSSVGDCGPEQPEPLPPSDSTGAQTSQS
UniProt A1KXC4, sequence (A1KXC4 17-422): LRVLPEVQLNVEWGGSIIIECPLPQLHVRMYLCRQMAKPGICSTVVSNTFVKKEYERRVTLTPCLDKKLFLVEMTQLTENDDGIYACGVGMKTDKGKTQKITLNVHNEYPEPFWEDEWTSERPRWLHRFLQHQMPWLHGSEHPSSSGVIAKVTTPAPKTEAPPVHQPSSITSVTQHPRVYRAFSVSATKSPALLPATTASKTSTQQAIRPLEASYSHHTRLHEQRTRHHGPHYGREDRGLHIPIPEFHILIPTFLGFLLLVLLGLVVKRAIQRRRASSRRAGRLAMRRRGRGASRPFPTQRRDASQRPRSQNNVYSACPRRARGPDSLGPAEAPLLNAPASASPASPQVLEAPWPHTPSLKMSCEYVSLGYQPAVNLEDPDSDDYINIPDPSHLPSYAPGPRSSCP

T15 IgM (murine monoclonal anti-phosphocholine antibody of the T15 idiotype, IgM form) (from UniProt P01592 22-159)
< 5%: adhesion of T15 IgM-opsonized Spn6A pneumococci to CHO cells stably expressing the receptor (MOI 1, T15 antibody 50 μg/ml); no notable increase; anti-capsule antibody control 85% binding (FcαμR (mouse)) | adhesion of T15 IgM-opsonized Spn6A pneumococci to CHO cells stably expressing the receptor (MOI 1, T15 antibody 50 μg/ml); no notable increase; anti-capsule antibody control 85% binding (FcμR (mouse))

T15 IgG3 (murine monoclonal anti-phosphocholine antibody of the T15 idiotype, IgG3 form)
< 5%: adhesion of T15 IgG3-opsonized Spn6A pneumococci to CHO cells stably expressing the receptor (MOI 1, T15 antibody 50 μg/ml); no notable increase; anti-capsule antibody control 85% binding (FcRn (mouse)) | adhesion of T15 IgG3-opsonized Spn6A pneumococci to CHO cells stably expressing the receptor (MOI 1, T15 antibody 50 μg/ml); no notable increase; anti-capsule antibody control 85% binding (FcγRI (mouse)) | adhesion of T15 IgG3-opsonized Spn6A pneumococci to CHO cells stably expressing the receptor (MOI 1, T15 antibody 50 μg/ml); no notable increase; anti-capsule antibody control 85% binding (FcγRIIB (mouse)) | adhesion of T15 IgG3-opsonized Spn6A pneumococci to CHO cells stably expressing the receptor (MOI 1, T15 antibody 50 μg/ml); no notable increase; anti-capsule antibody control 85% binding (FcγRIII (mouse)) | adhesion of T15 IgG3-opsonized Spn6A pneumococci to CHO cells stably expressing the receptor (MOI 1, T15 antibody 50 μg/ml); no notable increase; anti-capsule antibody control 85% binding (FcγRIV (mouse))
